Data: patent US20100203552

Experiments:
[1] = system: GST-Bim polypeptide [GST: P08515]
Target sequence in this assay (P08515 whole entry, looked up, the tested form may be a part): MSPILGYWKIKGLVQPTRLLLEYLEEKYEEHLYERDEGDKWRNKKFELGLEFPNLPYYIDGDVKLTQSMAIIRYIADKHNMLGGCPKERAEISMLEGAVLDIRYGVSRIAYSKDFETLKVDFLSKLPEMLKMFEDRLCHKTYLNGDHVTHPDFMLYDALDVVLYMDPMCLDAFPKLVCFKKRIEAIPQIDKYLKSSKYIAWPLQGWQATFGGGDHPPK

[2] = system: phosphorylated GST-Bim fusion protein [GST: P08515]
[3] = target: GST-Bim polypeptide [GST: P08515]; remark: listed apart in the source
Target sequence in this assay (P08515 whole entry, looked up, the tested form may be a part): as above

Sequence of phosphorylated GST-Bim fusion protein [GST: P08515] (P08515 whole entry, looked up, the tested form may be a part): as above

Molecule | Bim ubiquitination [1] | Bim ubiquitination [2] | Bim ubiquitination (anti-ubiquitin immunoblot of immunoprecipitated GST-Bim) [3]
Myc-tagged TRIM2 (myc-TRIM2) | Incubation of TRIM2 polypeptide with Bim resulted in low levels of Bim ubiquitination | addition of active MAPK to the reaction enhanced Bim ubiquitination | 
TRIM2 protein from rat brain lysate / rat cortical neuronal cell lysates (protein) MQRAGSRTAGPTCQWSRMASEGASIPSPVVRQIDKQFLICSICLERYKNPKVLPCLHTFCERCLQNYIPAHSLTLSCPVCRQTSILPEKGVAALQNNFFITNLMDVLQRTPGSNGEDPSILQTVTAVAAGKPLSCPNHDGNVMEFYCQSCETAMCRECTEGEHAEHPTVPLKDVVEQHKASLQVQLDAVNKRLPEIDSALQFISEIIHQLTNQKASIVDDIHSTFDELQKTLNVRKSVLLMELEVNYGLKHKVLQSQLDTLLQGQESIKSCSNFTAQALNHGTETEVLLVKKQMSEKLNELADQDFPLHPRENDQLDFIVETEGLKKSIHNLGTILTTNAVASETVATGEGLRQTIIGQPMSVTITTKDKDGELCKTGNAYLTAELSTPDGSVADGEILDNKNGTYEFLYTVQKEGDFTLSLRLYDQHIRGSPFKLKVIRSADVSPTTEGVKRRVKSPGSGHVKQKAVKRPASMYSTGKRKENPIEDDLIFRVGTKGRNKGEFTNLQGVAASTSGKILIADSNNQCVQIFSNDGQFKSRFGIRGRSPGQLQRPTGVAVHPSGDIIIADYDNKWVSIFSNDGKFKTKIGSGKLMGPKGVSVDRNGHIIVVDNKACCVFIFQPNGKIVTRFGSRGNGDRQFAGPHFAAVNSSNEIIITDFHNHSVKVFNQEGEFMLKFGSNGEGNGQFNAPTGVAVDSNGNIIVADWGNSRIQVFDGSGSFLSYINTSADPLYGPQGLALTSDGHVVVADSGNHCFKVYRYLQ |  |  | immunodepletion of TRIM2 protein reduces Bim ubiquitination in lysates from preconditioned cells to that of control lysates
